Molecular target: T1, LINGO-1 ectodomain (human, UniProt Q96FE5 42-561)
T1 construct: also called Sp35
T1 sequence: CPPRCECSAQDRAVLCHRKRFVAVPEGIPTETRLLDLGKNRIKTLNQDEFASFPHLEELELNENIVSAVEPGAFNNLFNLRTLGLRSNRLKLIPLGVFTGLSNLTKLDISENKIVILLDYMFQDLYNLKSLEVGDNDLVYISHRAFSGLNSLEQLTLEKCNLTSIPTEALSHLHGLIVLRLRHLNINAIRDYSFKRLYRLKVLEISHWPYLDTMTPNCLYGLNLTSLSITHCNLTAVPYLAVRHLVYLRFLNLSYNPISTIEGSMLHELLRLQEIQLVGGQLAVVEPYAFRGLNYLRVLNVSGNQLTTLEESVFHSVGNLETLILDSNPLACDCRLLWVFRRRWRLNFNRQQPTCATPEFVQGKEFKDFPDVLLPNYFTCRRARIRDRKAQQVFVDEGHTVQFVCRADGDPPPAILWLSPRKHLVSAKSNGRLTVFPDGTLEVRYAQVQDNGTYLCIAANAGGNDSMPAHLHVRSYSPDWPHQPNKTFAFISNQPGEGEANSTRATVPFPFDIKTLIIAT
Test: method not stated

B1: Li81 (antibody, human IgG1, kappa, V domains shown)
VH: EVQLLESGGGLVQPGGSLRLSCAASGFTFSAYEMKWVRQAPGKGLEWVSVIGPSGGFTFYADSVKGRFTISRDNSKNTLYLQMNSLRAEDTAVYYCATEGDNDAFDIWGQGTTVTVSS
VL: DIQMTQSPATLSLSPGERATLSCRASQSVSSYLAWYQQKPGQAPRLLIYDASNRATGIPARFSGSGSGTDFTLTISSLEPEDFAVYYCQQRSNWPMYTFGQGTKLEIKR
notes: also called anti-LINGO-1 antibody; anti-Lingo-1
Kd: ≤ 0.02 nM

B2: Fab of Li81 (Fab, V domains shown)
VH: EVQLLESGGGLVQPGGSLRLSCAASGFTFSAYEMKWVRQAPGKGLEWVSVIGPSGGFTFYADSVKGRFTISRDNSKNTLYLQMNSLRAEDTAVYYCATEGDNDAFDIWGQGTTVTVSS
VL: DIQMTQSPATLSLSPGERATLSCRASQSVSSYLAWYQQKPGQAPRLLIYDASNRATGIPARFSGSGSGTDFTLTISSLEPEDFAVYYCQQRSNWPMYTFGQGTKLEIK
notes: also called Li81 Fab
Kd: ≤ 0.05 nM
